Test results reported in patent publication US20250074980A1 (BRIGHAM AND WOMEN S HOSPITAL, published 2025).

T1: CEACAM6 on transfected HeLa cells (human, UniProt P40199 35-320)
T1 construct: whole, on cells; also called HeLa-CEACAM6; HeLa C6
T1 sequence (looked up): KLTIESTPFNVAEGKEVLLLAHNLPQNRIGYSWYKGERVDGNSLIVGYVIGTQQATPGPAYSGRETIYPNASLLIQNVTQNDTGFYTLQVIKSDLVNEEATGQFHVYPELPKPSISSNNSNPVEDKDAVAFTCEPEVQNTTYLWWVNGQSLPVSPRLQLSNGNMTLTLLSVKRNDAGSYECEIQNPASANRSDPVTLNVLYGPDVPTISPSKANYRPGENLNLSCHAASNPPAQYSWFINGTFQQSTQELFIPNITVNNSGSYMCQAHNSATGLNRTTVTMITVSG

T2: CEACAM3 on transfected HeLa cells (human, UniProt P40198 35-252)
T2 construct: whole, on cells; also called HeLa-CEACAM3; HeLa C3
T2 sequence (looked up): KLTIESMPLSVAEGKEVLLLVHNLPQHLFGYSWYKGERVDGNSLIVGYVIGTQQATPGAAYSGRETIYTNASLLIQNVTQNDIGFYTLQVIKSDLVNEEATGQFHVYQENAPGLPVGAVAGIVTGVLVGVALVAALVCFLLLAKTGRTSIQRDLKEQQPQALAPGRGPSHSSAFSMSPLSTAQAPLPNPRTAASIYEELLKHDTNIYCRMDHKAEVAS

T3: CEACAM8 on transfected HeLa cells (human, UniProt P31997 35-320)
T3 construct: whole, on cells; also called HeLa-CEACAM8; HeLa C8
T3 sequence (looked up): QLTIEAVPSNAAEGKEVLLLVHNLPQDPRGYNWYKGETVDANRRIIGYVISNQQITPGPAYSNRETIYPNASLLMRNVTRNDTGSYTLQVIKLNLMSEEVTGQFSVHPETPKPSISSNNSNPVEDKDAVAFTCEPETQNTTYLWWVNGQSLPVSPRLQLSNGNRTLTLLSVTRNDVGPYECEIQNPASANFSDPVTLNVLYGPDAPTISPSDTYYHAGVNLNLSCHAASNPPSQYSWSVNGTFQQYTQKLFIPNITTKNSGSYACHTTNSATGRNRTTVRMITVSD

B1: CP08H03/Vκ8 S29A (antibody, IgG4, V domains shown)
VH: EVQLLESGGGLVQPGGSLRLSCAASGFIFSSHGMSWVRQAPGKGLEWVATISSGGTYTYYPDSVKGRFTISRDNSKNTLYLQMNSLKAEDTAMYYCARHDFDYFPYWFAHWGQGTLVTVSS
VL: EIVLTQSPATLSLSPGERATLSCRANSAVSYMYWYQQKPGQAPRPWIYLTSNRATGVPARFSGSGSGTDYTLTISSLEPEDFAVYYCQQWSSNPPTFGQGTKLEIK
notes: IgG4 (S241P), kappa; also called CP08_H03/Parent VL; CP08_H03/Parental
B2: chimeric antibody VH0/Vκ0 (antibody, IgG4, V domains shown)
VH: EVQLVESGGDLVKPGGSLKLACAASGFIFSSHGMSWVRQTPDKRLEWVATISSGGTYTYYPDSVKGRFTISRDNDKNTLYLQMNSLKSEDTAMYYCARHDFDYDAAWFAYWGQGTLVTVSS
VL: QIVLTQSPALMSASPGVKVTMTCSANSSVSYMYWYRQKPRSSPKPWIYLTSNLASGVPARFSGSGSGTSYSLTISSMEAEDAATYYCQQWSSNPPTFGSGTKLEIK
notes: IgG4 (S241P), kappa; also called VH0/Vκ0 (control); Chimeric VH0/Vκ0

How the values were obtained:
[1] = target: T1, CEACAM6 on transfected HeLa cells; experiment: flow cytometry titration, HeLa-CEACAM6 transfectants, anti-human IgG4 FITC
Experimental: FIGS. 31A and 31B show flow cytometry analyses of stable HeLa CEACAM1 (HeLa C1) transfectant, stable HeLa CEACAM3 transfectant (HeLa C3), stable HeLa CEACAM5 transfectant (HeLa C5), stable HeLa CEACAM6 transfectant (HeLa C6), and stable HeLa CEACAM8 transfectant (HeLa C8). FIG. 31A: 5×10\hat{ }4 indicated HeLa transfectants were washed with staining buffer and CP08H03/Vκ8 S29A (labeled “CP08”, left) or CEACAM1 antibody CM-24 was incubated at room temperature for 30 min, washed twice with staining buffer, and stained for anti-human IgG4 Fluorescein isothiocyanate (FITC) conjugated secondary antibody at room temperature for 20 min. Fluorescence intensities were determined by flow cytometry. Live cells were determined by 4′,6-diamidino-2-phenylindole (DAPI) staining as shown on the y-axis. Staining with the respective CEACAM1 antibody is shown on the x-axis. […]
The cervical adenocarcinoma cell line HeLa (ATCC No CCL-2) as well as transfected cell lines HeLaCEACAM1, HeLaCEACAM3, HeLaCEACAM5, HeLaCEACAM6 and HeLaCEACAM8 used for flow cytometry experiments were cultured at 37° C., 5.0% CO₂ in Dulbecco's modified Eagle's medium supplemented with 10% fetal bovine serum, penicillin (100 U/ml) and dihydrostreptomycin (100 μg/ml). […] Data were acquired with a Cytoflex flow cytometer (Invitrogen) and analyzed with FlowJo software (TreeStar, V7.6.5 for Windows).

[2] = target: T2, CEACAM3 on transfected HeLa cells; experiment: flow cytometry, transfected HeLa
In short: (§1)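 Flow cytometry was done on HeLa cells stably expressing single CEACAM family members, cultured in DMEM with 10% fetal bovine serum at 37° C, 5.0% CO₂, and stained with the test antibody, then a fluorochrome-conjugated isotype-specific secondary antibody, with DAPI for viability. Staining of each transfectant serves as the readout of binding selectivity.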

[3] = target: T3, CEACAM8 on transfected HeLa cells; experiment: flow cytometry, transfected HeLa
In short: as §1

| Binder | binding result [1] | binding result [2] | binding result [3] |
| --- | --- | --- | --- |
| B1 | no binding (tested: 100 ug/ml) | – | – |
| B2 | – | no binding | no binding |
